Earlier results in publication PMC7696831.

Target: SARS-CoV spike protein (Severe acute respiratory syndrome coronavirus) (UniProt P59594)

Chain of angiotensin-converting enzyme 2 (Q9BYF1 18-708): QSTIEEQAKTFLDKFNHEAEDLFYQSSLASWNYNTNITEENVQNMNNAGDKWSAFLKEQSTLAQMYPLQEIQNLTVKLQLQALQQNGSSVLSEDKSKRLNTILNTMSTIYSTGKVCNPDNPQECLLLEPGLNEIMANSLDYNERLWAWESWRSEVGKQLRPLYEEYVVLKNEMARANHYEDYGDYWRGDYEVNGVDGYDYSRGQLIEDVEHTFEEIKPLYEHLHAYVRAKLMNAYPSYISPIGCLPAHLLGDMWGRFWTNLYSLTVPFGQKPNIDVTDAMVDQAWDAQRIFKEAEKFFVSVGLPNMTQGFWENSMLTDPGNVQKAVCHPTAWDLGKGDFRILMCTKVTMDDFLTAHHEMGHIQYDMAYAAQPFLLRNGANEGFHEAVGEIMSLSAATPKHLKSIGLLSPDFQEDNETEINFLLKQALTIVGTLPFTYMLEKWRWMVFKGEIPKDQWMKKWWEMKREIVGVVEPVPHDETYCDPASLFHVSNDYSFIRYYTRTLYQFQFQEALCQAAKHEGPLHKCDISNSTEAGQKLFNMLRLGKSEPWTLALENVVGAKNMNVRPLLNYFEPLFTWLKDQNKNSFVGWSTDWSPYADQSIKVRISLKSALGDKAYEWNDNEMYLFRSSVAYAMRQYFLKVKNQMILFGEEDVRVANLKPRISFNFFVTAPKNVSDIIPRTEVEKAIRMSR

## angiotensin-converting enzyme 2 (from UniProt Q9BYF1)
  Kd: 326 nM
